Measured values taken from patent publication US20130143251A1.

How the values were obtained:
[1] = biological target: doubly labelled ubiquitinated peptide 32: Dnp-labelled Ub linked through a native isopeptide bond to MCA-(Nle)FKTEG (FRET substrate) (human)
[2] = biological target: ubiquitinated peptide 24 (full Ub linked through a native isopeptide bond to a 31-mer from the C-terminus of H2B) (human)
[3] = biological target: ubiquitinated peptide 20 (full Ub linked through a native isopeptide bond to the H2B 8-mer AVTKYTSK) (human)

increase of fluorescence emission upon cleavage (FRET assay) (fold increase in fluorescence) [1]: 6
percent hydrolysis, HPLC (% hydrolysis within 30 minutes) [2]: 25
percent hydrolysis, HPLC (% hydrolysis within 30 minutes) [3]: 75
Substance: recombinant human UCH-L3 (ubiquitin C-terminal hydrolase) (from UniProt P15374) (enzyme)
